doi:10.1101/2025.02.19.639050 (bioRxiv, 2025)
Residue numbers refer to the chain shown, from its start.

B1: ERBB2-P00873 (antibody, V domains shown)
VH: VQLVESDGGGLVQQGGSLRLSCAASGFNIKDRYIHWVRQAPGKGLEWVARIYPTNGYTRYADRVKGRFTISADTSKNTAYLQMFSLRAEDTAVYYCSRWGGDGFYAMDYWGQGTLVTVSS
VL: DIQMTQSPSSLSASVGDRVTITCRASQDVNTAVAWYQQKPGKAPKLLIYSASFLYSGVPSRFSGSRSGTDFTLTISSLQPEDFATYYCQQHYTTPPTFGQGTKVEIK
notes: as the heavy chain of m2 (trastuzumab, PDB 1N8Z) with changes; as the light chain of m2 (trastuzumab, PDB 1N8Z); Expressed as IgG; also called design of hu4D5 (5 edits, 1 insertion); source: Expi293F, transient (GLFs), purified (Protein A)
B2: seed OSM-N021 (antibody, V domains shown)
VH: EVQLVESGGGLVQPGGSLRLSCAASGFTFNIYSMNWVRQAPGKGLEWISYISGNSNTIYYADSVKGRFTISRDNAKNSVYLQMNSLRDEDTAVYYCARSLLRYFDWLSAFDIWGQGTMVTVSS
VL: EIVLTQSPGTLSLSPGERATLSCRASQSVGSSYLAWYQQRPGQAPRLLIHGASSRATGIPDRFSGSGSGTDFTLTISGLEPEDVAVYYCQQYGSSPLTFGGGTKVEIK
notes: IgG in SPR; the Fab was crystallised; source: Expi293F, transient (GLFs), purified (Protein A)
B3: design 9N7M (antibody, V domains shown)
VH: B2 VH with G53S, N54G, K76E, V79L, L100G, A109Y, M118L
VL: B2 VL
notes: the Fab of this design is deposited as PDB 9N7M (heavy chain); the Fab of this design is deposited as PDB 9N7M (light chain); IgG in SPR; the Fab (CHO) was crystallised; also called design of seed OSM-N021 with G+Y mutations in the stem region of CDRH3; source: Expi293F, transient (GLFs), purified (Protein A)
B4: design 9N7O (antibody, V domains shown)
VH: B2 VH with N30T, G53S, N54G, V79L, L100S, A109Y, I112Y
VL: B2 VL
notes: the Fab of this design is deposited as PDB 9N7O (heavy chain); the Fab of this design is deposited as PDB 9N7O (light chain); IgG in SPR; the Fab (CHO) was crystallised; also called design of seed OSM-N021 with S+Y mutations in the stem region of CDRH3; source: Expi293F, transient (GLFs), purified (Protein A)

What was measured:
[1] = biological target: T1, Human epidermal growth factor receptor 2 (Homo sapiens, UniProt P04626); assay: SPR; Biacore 8K+; antibody captured on a Protein A chip, antigen injected (typically 0.16, 0.8, 4, 20 and 100 nM; 180 s association, 600 s dissociation, 30 µl/min); HBS-EP buffer pH 7.4, 0.15 M NaCl; single cycle or multi cycle kinetics; 1:1 binding model; conditions: both partners purified
T1 construct: ERBB2), the antigen injected in SPR; also called HER2; ERBB2

Oncostatin M = biological target: T2, Oncostatin M (Homo sapiens, UniProt P13725); assay: as above; conditions: both partners purified
T2 construct: Oncostatin M (OSM), the antigen injected in SPR; also called OSM
T2 sequence (P13725 26-221): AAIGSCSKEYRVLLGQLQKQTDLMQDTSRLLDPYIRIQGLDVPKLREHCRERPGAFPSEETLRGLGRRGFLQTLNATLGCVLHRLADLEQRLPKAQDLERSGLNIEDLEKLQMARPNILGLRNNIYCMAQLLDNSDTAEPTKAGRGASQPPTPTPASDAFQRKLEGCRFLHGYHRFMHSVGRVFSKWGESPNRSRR

Binder	fold improvement in binding relative to trastuzumab (hu4D5) [1] [fold]	ΔpKD relative to trastuzumab (hu4D5) [1]	binding result (Oncostatin M)	fold improvement in affinity relative to the seed OSM-N021 (Oncostatin M) [fold]	ΔpKD relative to the seed OSM-N021 (Oncostatin M)
B1	> 4	0.688	–	–	–
B2	–	–	binds	–	–
B3	–	–	–	3.6	0.56
B4	–	–	–	~4.5	0.65
